Measurements from the supplement of paper PMC9112550, “Optimization of the antimicrobial peptide Bac7 by deep mutational scanning” (BMC Biology, 2022).

Tested on: Escherichia coli TOP10
Experiment: shrunken log2 fold change of peptide-encoding DNA abundance (4.5 h post-induction vs induction); higher = less antimicrobial activity (less host growth inhibition)
Conditions: time post-induction: 4.5 h; library: site-saturation at positions 5, 18, 19, 20
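Also: peptides expressed intracellularly from a pBAD plasmid library in pooled LB shake-flask culture, induced with 0.3% L-arabinose, DNA abundance read by NGS, three biological replicates, DESeq2 with apeglm shrinkage.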

Sequence	shrunken log2 fold change
RRIRWRPPRLPRPRPRPRNNPRP	-0.162
RRIRSRPPRLPRPRPRPCERPRP	-0.0685
RRIRFRPPRLPRPRPRPIDTPRP	-0.127
RRIRARPPRLPRPRPRPTWYPRP	-0.00985
RRIRFRPPRLPRPRPRPYKYPRP	-0.907
RRIRHRPPRLPRPRPRPGQHPRP	-0.372
RRIRQRPPRLPRPRPRPLHQPRP	-0.172
RRIRDRPPRLPRPRPRPKCLPRP	0.313
RRIRGRPPRLPRPRPRPRASPRP	1.05
RRIRSRPPRLPRPRPRPLPMPRP	0.256
RRIRERPPRLPRPRPRPSGIPRP	-0.272
RRIRFRPPRLPRPRPRPDTSPRP	-0.985
RRIRHRPPRLPRPRPRPCICPRP	-0.347
RRIRARPPRLPRPRPRPESEPRP	3.51
RRIRGRPPRLPRPRPRPKGRPRP	0.792
RRIRKRPPRLPRPRPRPCNQPRP	0.0585
RRIRHRPPRLPRPRPRPHMHPRP	-0.687
RRIRHRPPRLPRPRPRPFHYPRP	-0.0791
RRIRDRPPRLPRPRPRPGGGPRP	1.08
RRIRHRPPRLPRPRPRPQLMPRP	-0.351
RRIRVRPPRLPRPRPRPCHYPRP	-0.0563
RRIRIRPPRLPRPRPRPEDVPRP	-0.0939
RRIRDRPPRLPRPRPRPHFPPRP	-0.0339

Sequence	shrunken log2 fold change
RRIRTRPPRLPRPRPRPHLPPRP	0.236
RRIRPRPPRLPRPRPRPHMMPRP	-0.19
RRIRWRPPRLPRPRPRPMYDPRP	-0.158
RRIRERPPRLPRPRPRPFWSPRP	-0.109
RRIRKRPPRLPRPRPRPCNIPRP	-0.697
RRIRSRPPRLPRPRPRPQVMPRP	-0.193
RRIRNRPPRLPRPRPRPLKFPRP	-0.212
RRIRRRPPRLPRPRPRPLPPPRP	0.937
RRIRYRPPRLPRPRPRPLSAPRP	-0.542
RRIRNRPPRLPRPRPRPAIHPRP	0.0529
RRIRHRPPRLPRPRPRPMYDPRP	0.0149
RRIRKRPPRLPRPRPRPFMWPRP	-0.078
RRIRLRPPRLPRPRPRPHDLPRP	-0.308
RRIRERPPRLPRPRPRPDKHPRP	0.236
RRIRYRPPRLPRPRPRPQSTPRP	-1.2
RRIRVRPPRLPRPRPRPIPHPRP	-0.307
RRIRSRPPRLPRPRPRPNNHPRP	-0.276
RRIRTRPPRLPRPRPRPVAGPRP	-0.0116
RRIRGRPPRLPRPRPRPQQSPRP	0.465
RRIRIRPPRLPRPRPRPKYDPRP	-0.51
RRIRFRPPRLPRPRPRPFFGPRP	0.0944
RRIRHRPPRLPRPRPRPDWCPRP	-0.00101
RRIRRRPPRLPRPRPRPQNSPRP	-0.266

Sequence	shrunken log2 fold change
RRIRTRPPRLPRPRPRPLIQPRP	-0.197
RRIRPRPPRLPRPRPRPMADPRP	0.131
RRIRARPPRLPRPRPRPTNIPRP	-0.354
RRIRKRPPRLPRPRPRPVDLPRP	-0.0854
RRIRMRPPRLPRPRPRPFGCPRP	0.254
RRIRLRPPRLPRPRPRPRFQPRP	0.0867
RRIRIRPPRLPRPRPRPLYKPRP	-0.622
RRIRHRPPRLPRPRPRPTNPPRP	-0.363
RRIRDRPPRLPRPRPRPRNNPRP	-0.196
RRIRPRPPRLPRPRPRPKQLPRP	0.0245
RRIRRRPPRLPRPRPRPGPPPRP	1.93
RRIRQRPPRLPRPRPRPFHAPRP	-0.117
RRIRGRPPRLPRPRPRPPSFPRP	0.653
RRIRIRPPRLPRPRPRPHAEPRP	-0.217
RRIRWRPPRLPRPRPRPLHGPRP	0.131
RRIRIRPPRLPRPRPRPECVPRP	0.0147
RRIRQRPPRLPRPRPRPNIFPRP	-0.496
RRIRIRPPRLPRPRPRPHHSPRP	-0.46
RRIRLRPPRLPRPRPRPFDLPRP	-0.0989
RRIRNRPPRLPRPRPRPLWYPRP	-0.619
RRIRLRPPRLPRPRPRPHMLPRP	-0.264
RRIRVRPPRLPRPRPRPSFEPRP	-0.214
RRIRPRPPRLPRPRPRPHIPPRP	-0.492

Sequence	shrunken log2 fold change
RRIRNRPPRLPRPRPRPIHRPRP	0.0891
RRIRDRPPRLPRPRPRPEGFPRP	0.638
RRIRNRPPRLPRPRPRPQAFPRP	-0.00429
RRIRSRPPRLPRPRPRPKMVPRP	-0.309
RRIRRRPPRLPRPRPRPAMPPRP	0.396
RRIRLRPPRLPRPRPRPTEHPRP	0.121
RRIRPRPPRLPRPRPRPQLTPRP	-0.221
RRIRYRPPRLPRPRPRPDTRPRP	-0.153
RRIRVRPPRLPRPRPRPGQGPRP	0.065
RRIRGRPPRLPRPRPRPAWYPRP	0.405
RRIRDRPPRLPRPRPRPDLNPRP	-0.041
RRIRMRPPRLPRPRPRPNYLPRP	-0.212
RRIRQRPPRLPRPRPRPVASPRP	-0.0704
RRIRSRPPRLPRPRPRPMEVPRP	-0.00803
RRIRDRPPRLPRPRPRPKNKPRP	-0.314
RRIRFRPPRLPRPRPRPRKVPRP	0.352
RRIRQRPPRLPRPRPRPEHVPRP	0.00725
RRIRVRPPRLPRPRPRPHVCPRP	-0.0775
RRIRNRPPRLPRPRPRPMIPPRP	0.0389
RRIRARPPRLPRPRPRPLDFPRP	0.173
RRIRSRPPRLPRPRPRPAKCPRP	0.0862
RRIRGRPPRLPRPRPRPYFGPRP	-0.335
